Reference: PMC4348151

Legend:
gp41-longNC = assay: BLI; settings: pH 4.0; second pH 7.0; 0.1% DPC
gp41-longNC (HIV-1) = gp41-longNC (HIV-1) (UniProt P04578); assay: AUC

Substance: 4E10
- fold difference (gp41-longNC): 30-fold

Substance: gp41-longNC (from UniProt P04578) (domain or fragment)
- stoichiometry N (gp41-longNC (HIV-1)): 3

Substance: 2F5
- fold difference in KD at pHs 4 and 7 (gp41-longNC): 4,000-fold
